We go through one substance from PMC9554601.

This assay has as its target stabilized SARS-CoV-2 spike protein trimer (S-6P) (SARS-CoV-2) (UniProt P0DTC2). The experiment in a line: cryo-EM structure.

Take “stabilized SARS-CoV-2 spike protein trimer (S-6P) (from UniProt P0DTC2)”: the stoichiometry N came out at 3.

As a reminder, the stoichiometry N is a count of units in the complex or per binding partner.
